# Test results: article PMC7780100
# Assay: 55Fe efflux after 10 µM hepcidin pretreatment, oocytes
# Settings: glycan lost; control: wild-type mouse Fpn
protein,measurement,value
mouse ferroportin (Fpn): N437D (protein) parent chain: MTKARDQTHQEGCCGSLANYLTSAKFLLYLGHSLSTWGDRMWHFAVSVFLVELYGNSLLLTAVYGLVVAGSVLVLGAIIGDWVDKNARLKVAQTSLVVQNVSVILCGIILMMVFLHKNELLTMYHGWVLTVCYILIITIANIANLASTATAITIQRDWIVVVAGENRSRLADMNATIRRIDQLTNILAPMAVGQIMTFGSPVIGCGFISGWNLVSMCVEYFLLWKVYQKTPALAVKAALKVEESELKQLTSPKDTEPKPLEGTHLMGEKDSNIRELECEQEPTCASQMAEPFRTFRDGWVSYYNQPVFLAGMGLAFLYMTVLGFDCITTGYAYTQGLSGSILSILMGASAITGIMGTVAFTWLRRKCGLVRTGLFSGLAQLSCLILCVISVFMPGSPLDLSVSPFEDIRSRFVNVEPVSPTTKIPETVFTTEMHMSNMSNVHEMSTKPIPIVSVSLLFAGVIAARIGLWSFDLTVTQLLQENVIESERGIINGVQNSMNYLLDLLHFIMVILAPNPEAFGLLVLISVSFVAMGHLMYFRFAQKTLGNQIFVCGPDEKEVTDENQPNTSVV,other: hepcidin inhibition of transport,no change
